In article doi:10.1101/2021.04.27.441613 (bioRxiv, 2021):

Target: the molecule itself
Assay: SEC + other: SDS-PAGE

B1: dLanYFP (other)
chain: MSLPATHELHIFGSFNGVDFDMVGRGTGNPNDGYEELNLKSTKGALQFSPWILVPQIGYGFHQYLPFPDGMSPFQAAMKDGSGYQVHRTMQFEDGASLTSNYRYTYEGSHIKGEFQVKGTGFPADGPVMTNSLTAADWCVTKMLYPNDKTIISTFDWTYTTGSGKRYQSTVRTTYTFAKPMAANILKNQPMFVFRKTELKHSKTELNFKEWQKAFTDVM
stoichiometry N: 2
